According to paper PMC11393341, “The ASC inflammasome adapter governs SAA-derived protein aggregation in inflammatory amyloidosis” (EMBO Molecular Medicine, 2024):

Molecular target: T1, Monomeric human ASC-His (recombinant full-length ASC) (human, UniProt Q9ULZ3 1-195)
T1 construct: ASC (apoptosis-associated speck-like protein containing a CARD), human, recombinant full-length, monomeric; The methods list ASC-His and ASC-GFP-His; also called apoptosis-associated speck-like protein containing a caspase recruitment domain; monomeric recombinant human ASC; source: E. coli BL21(DE3), purified from inclusion bodies (Nickel beads, size exclusion chromatography)
T1 sequence (Q9ULZ3 whole entry, the tested form may be a part): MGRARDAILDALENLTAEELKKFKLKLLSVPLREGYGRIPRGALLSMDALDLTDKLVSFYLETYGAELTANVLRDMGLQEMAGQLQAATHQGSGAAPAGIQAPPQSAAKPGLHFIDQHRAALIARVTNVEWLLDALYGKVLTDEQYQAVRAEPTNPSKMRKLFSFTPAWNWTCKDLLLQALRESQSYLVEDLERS
Test: limited proteolysis-coupled mass spectrometry (LiP-MS); purified monomeric recombinant ASC incubated with monomeric recombinant human SAA1, 15 min at 37 °C in LiP buffer (100 mM HEPES pH 7.4, 150 mM KCl, 1 mM MgCl2); proteinase K 1:100 (w/w) 5 min at 37 °C; ASC peptides compared with and without SAA1
Settings: both partners purified

binding result: binds
B1: recombinant human SAA1 (natural protein, UniProt P0DJI8 19-122, looked up)
chain: RSFFSFLGEAFDGARDMWRAYSDMREANYIGSDKYFHARGNYDAAKRGPGGAWAAEVITDARENIQRFFGHGAEDSLADQAANEWGRSGKDPNHFRPAGLPEKY
notes: Serum amyloid A-1 (SAA1), human, recombinant; The assay format tells the two apart; How the fibrils were made is not described; also called serum amyloid A; monomeric recombinant human SAA1
